Values quoted from earlier work as cited in patent publication US20230167467A1, “METHODS AND COMPOSITIONS FOR THE PRODUCTION OF ISOBUTENE” (University of Alaska Anchorage, priority 2020, published 2023).

Conditions: purified MVD on 3-HIV; cited from earlier work

B1: MVD: mevalonate diphosphate decarboxylase of Saccharomyces cerevisiae, enzyme and gene/transcript (optimized gene SEQ ID NO:2) (protein)
chain: MTVYTASVTAPVNIATLKYWGKRDTKLNLPTNSSISVTLSQDDLRTLTSAATAPEFERDTLWLNGEPHSIDNERTQNCLRDLRQLRKEMESKDASLPTLSQWKLHIVSENNFPTAAGLASSAAGFAALVSAIAKLYQLPQSTSEISRIARKGSGSACRSLFGGYVAWEMGKAEDGHDSMAVQIADSSDWPQMKACVLVVSDIKKDVSSTQGMQLTVATSELFKERIEHVVPKRFEVMRKAIVEKDFATFAKETMMDSNSFHATCLDSFPPIFYMNDTSKRIISWCHTINQFYGETIVAYTFDAGPNAVLYYLAENESKLFAFIYKLFGSVPGWDKKFTTEQLEAFNHQFESSNFTARELDLELQKDVARVILTQVGSGPQETNESLIDAKTGLPKE
modifications: optimized gene; MVD optimized gene sequence
- Isobutene production: 6.44±0.95 pmol*min-1 *mg protein-1
